This is an account of results in patent US20190152966A1 (INSTITUTE OF CANCER RESEARCH ROYAL CANCER HOSPITAL, published 2019).

The target of the assay is T1, Epidermal Growth Factor Receptor (EGFR) (human, UniProt P00533 25-1210).
T1 construct: whole, on cells; also called HER1; EGF receptor
Put plainly: heading of the results section on rhMATN2 added to MDA-MB-231 cells.

B1: recombinant human MATN2 (rhMATN2) (ligand, UniProt O00339 24-956, looked up)
chain: RERSRGRSISRGRHARTHPQTALLESSCENKRADLVFIIDSSRSVNTHDYAKVKEFIVDILQFLDIGPDVTRVGLLQYGSTVKNEFSLKTFKRKSEVERAVKRMRHLSTGTMTGLAIQYALNIAFSEAEGARPLRENVPRVIMIVTDGRPQDSVAEVAAKARDTGILIFAIGVGQVDFNTLKSIGSEPHEDHVFLVANFSQIETLTSVFQKKLCTAHMCSTLEHNCAHFCINIPGSYVCRCKQGYILNSDQTTCRIQDLCAMEDHNCEQLCVNVPGSFVCQCYSGYALAEDGKRCVAVDYCASENHGCEHECVNADGSYLCQCHEGFALNPDKKTCTKIDYCASSNHGCQHECVNTDDSYSCHCLKGFTLNPDKKTCRRINYCALNKPGCEHECVNMEESYYCRCHRGYTLDPNGKTCSRVDHCAQQDHGCEQLCLNTEDSFVCQCSEGFLINEDLKTCSRVDYCLLSDHGCEYSCVNMDRSFACQCPEGHVLRSDGKTCAKLDSCALGDHGCEHSCVSSEDSFVCQCFEGYILREDGKTCRRKDVCQAIDHGCEHICVNSDDSYTCECLEGFRLAEDGKRCRRKDVCKSTHHGCEHICVNNGNSYICKCSEGFVLAEDGRRCKKCTEGPIDLVFVIDGSKSLGEENFEVVKQFVTGIIDSLTISPKAARVGLLQYSTQVHTEFTLRNFNSAKDMKKAVAHMKYMGKGSMTGLALKHMFERSFTQGEGARPLSTRVPRAAIVFTDGRAQDDVSEWASKAKANGITMYAVGVGKAIEEELQEIASEPTNKHLFYAEDFSTMDEISEKLKKGICEALEDSDGRQDSPAGELPKTVQQPTESEPVTINIQDLLSCSNFAVQHRYLFEEDNLLRSTQKLSHSTKPSGSPLEEKHDQCKCENLIMFQNLANEEVRKLTQRLEEMTQRMEALENRLRYR
notes: also called Matrilin2; human recombinant MATN2
For B1, the binding result was “binds”.
